Results on two substances are retold here after publication PMC5126634.

Series [1] relates to His51. Nature of the series: kinetics. The following applies: 37 °C, multicomponent buffer: 100 mM acetate, 100 mM MES, 100 mM HEPES, 100 mM CHES, 100 mM CAPS.
In series [2] the target is His51 (UniProt position 1526, FHTMWHVTRGA). Nature of the series: kinetics. The note with it: 37 °C, multicomponent buffer: 100 mM acetate, 100 mM MES, 100 mM HEPES, 100 mM CHES, 100 mM CAPS.
Where [3] appears, read: enzyme-substrate complex (pKes1, from kcat).
[4] abbreviates: free enzyme (pKe1, from kcat/Km).

As a reminder, the pKa is the negative logarithm of the acid dissociation constant. “Dengue virus 2 NS2B-NS3 protease, unlinked complex (NS2BH + NS3pro) (Dengue virus 2 (DENV2))”: the pKa came out at 8.2 ± 0.1 in series [1] (setting [3]) and 8.7 ± 0.7 in series [1] (setting [4]).

“Dengue virus 2 NS2B-NS3 protease, glycine-linked (NS2BH-gly-NS3pro) (Dengue virus 2 (DENV2))”: the pKa in series [2] (setting [3]) is given as 8.6 ± 0.4; in series [2] (setting [4]) it was 8.1 ± 0.3.
